In PMC7063449:

Biological target: bril-ACKR3WT (human) (UniProt P25106)
Assay: flow cytometry on cells

bril-ACKR3WT (human), sequence (P25106 2-332): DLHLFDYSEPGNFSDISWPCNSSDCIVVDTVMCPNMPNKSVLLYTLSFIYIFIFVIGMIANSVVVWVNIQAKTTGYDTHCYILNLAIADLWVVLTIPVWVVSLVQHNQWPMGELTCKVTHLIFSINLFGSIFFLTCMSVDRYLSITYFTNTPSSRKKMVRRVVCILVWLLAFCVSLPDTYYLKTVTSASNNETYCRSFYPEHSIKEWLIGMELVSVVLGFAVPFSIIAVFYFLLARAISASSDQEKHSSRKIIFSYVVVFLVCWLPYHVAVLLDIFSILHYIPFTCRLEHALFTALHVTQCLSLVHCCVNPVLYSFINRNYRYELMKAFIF

HA-tagged CXCL12P2G (from UniProt P48061 22-93) (ligand)
dissociative half-life: 7.2 min
